Data from the supplement of paper PMC11246515.
± gives the standard deviation of the averaged measurements.

Assay: total protein half-life in vivo (active degradation + dilution); higher = more stable protein
[1] = E. coli NCM3722 delta-clpP delta-lon delta-hslV, growth: N-lim chemostat, doubling time 6 h
[2] = E. coli NCM3722 delta-clpP, growth: N-lim chemostat, doubling time 6 h
[3] = E. coli NCM3722 delta-hslV, growth: N-lim chemostat, doubling time 6 h
[4] = E. coli NCM3722 delta-lon, growth: N-lim chemostat, doubling time 6 h
[5] = E. coli NCM3722 delta-smpB, growth: N-lim chemostat, doubling time 6 h
[6] = wild type E. coli NCM3722, growth: C-lim chemostat, doubling time 3 h
[7] = wild type E. coli NCM3722, growth: C-lim chemostat, doubling time 12 h
[8] = wild type E. coli NCM3722, growth: N-lim chemostat, doubling time 6 h
[9] = wild type E. coli NCM3722, growth: N-lim chemostat, doubling time 12 h
[10] = wild type E. coli NCM3722, growth: P-lim chemostat, doubling time 6 h
[11] = wild type E. coli NCM3722, growth: P-lim chemostat, doubling time 12 h
[12] = wild type E. coli NCM3722, growth: C-lim chemostat, doubling time 6 h

Sequence	total protein half-life in vivo [1]	total protein half-life in vivo [2]	total protein half-life in vivo [3]	total protein half-life in vivo [4]	total protein half-life in vivo [5]	total protein half-life in vivo [6]	total protein half-life in vivo [7]	total protein half-life in vivo [8]	total protein half-life in vivo [9]	total protein half-life in vivo [10]	total protein half-life in vivo [11]	total protein half-life in vivo [12]
MELLSEYGLFLAKIVTVVLAIAAIAAIIVNVAQRNKRQRGELRVNNLSEQYKEMKEELAAALMDSHQQKQWHKAQKKKHKQEAKAAKAKAKLGEVATDSKPRVWVLDFKGSMDAHEVNSLREEITAVLAAFKPQDQVVLRLESPGGMVHGYGLAASQLQRLRDKNIPLTVTVDKVAASGGYMMACVADKIVSAPFAIVGSIGVVAQMPNFNRFLKSKDIDIELHTAGQYKRTLTLLGENTEEGREKFREELNETHQLFKDFVKRMRPSLDIEQVATGEHWYGQQAVEKGLVDEINTSDEVILSLMEGREVVNVRYMQRKRLIDRFTGSAAESADRLLLRWWQRGQKPLM [P0AG14]	6.52 ± 0.91 h	6.18 ± 0.14 h	5.91 ± 0.15 h	6.12 ± 0.27 h	6.07 ± 0.87 h	3.11 ± 0.099 h	11.3 ± 0.26 h	6.076 ± 0.021 h	14.1 ± 1.8 h	5.6 ± 0.61 h	11.4 ± 1.4 h	–
MELSSLTAVSPVDGRYGDKVSALRGIFSEYGLLKFRVQVEVRWLQKLAAHAAIKEVPAFAADAIGYLDAIVASFSEEDAARIKTIERTTNHDVKAVEYFLKEKVAEIPELHAVSEFIHFACTSEDINNLSHALMLKTARDEVILPYWRQLIDGIKDLAVQYRDIPLLSRTHGQPATPSTIGKEMANVAYRMERQYRQLNQVEILGKINGAVGNYNAHIAAYPEVDWHQFSEEFVTSLGIQWNPYTTQIEPHDYIAELFDCVARFNTILIDFDRDVWGYIALNHFKQKTIAGEIGSSTMPHKVNPIDFENSEGNLGLSNAVLQHLASKLPVSRWQRDLTDSTVLRNLGVGIGYALIAYQSTLKGVSKLEVNRDHLLDELDHNWEVLAEPIQTVMRRYGIEKPYEKLKELTRGKRVDAEGMKQFIDGLALPEEEKARLKAMTPANYIGRAITMVDELK [P0AB89]	4.77 ± 0.41 h	5.24 ± 0.62 h	5.18 ± 0.54 h	5.11 ± 0.4 h	4.63 ± 0.12 h	3.01 ± 0.1 h	10.5 ± 0.86 h	4.64 ± 0.062 h	8.57 ± 0.16 h	5.79 ± 0.6 h	12.25 ± 0.033 h	5.55 ± 0.32 h
MELYREYPAWLIFLRRTYAVAAGVLALPFMLFWKDRARFYSYLHRVWSKTSDKPVWMDQAEKATGDFY [P0AAU2]	2.55 ± 0.61 h	–	–	–	1.38 ± 0.15 h	–	3.9 h	2.33 h	3.85 h	0.733 h	3.35 ± 1.6 h	–
MENIMNNPVIGVVMCRNRLKGHATQTLQEKYLNAIIHAGGLPIALPHALAEPSLLEQLLPKLDGIYLPGSPSNVQPHLYGENGDEPDADPGRDLLSMAIINAALERRIPIFAICRGLQELVVATGGSLHRKLCEQPELLEHREDPELPVEQQYAPSHEVQVEEGGLLSALLPECSNFWVNSLHGQGAKVVSPRLRVEARSPDGLVEAVSVINHPFALGVQWHPEWNSSEYALSRILFEGFITACQHHIAEKQRL	–	2.93 h	–	–	–	2.64 h	10.5 h	–	–	–	10.6 ± 0.45 h	–
MENKSARAKVQAFGGFLTAMVIPNIGAFIAWGFITALFIPTGWLPNEHFAKIVGPMITYLLPVMIGSTGGHLVGGKRGAVMGGIGTIGVIVGAEIPMFLGSMIMGPLGGLVIKYVDKALEKRIPAGFEMVINNFSLGIAGMLLCLLGFEVIGPAVLIANTFVKECIEALVHAGYLPLLSVINEPAKVLFLNNAIDQGVYYPLGMQQASVNGKSIFFMVASNPGPGLGLLLAFTLFGKGMSKRSAPGAMIIHFLGGIHELYFPYVLMKPLTIIAMIAGGMSGTWMFNLLDGGLVAGPSPGSIFAYLALTPKGSFLATIAGVTVGTLVSFAITSLILKMEKTVETESEDEFAQSANAVKAMKQEGAFSLSRVKRIAFVCDAGMGSSAMGATTFRKRLEKAGLAIEVKHYAIENVPADADIVVTHASLEGRVKRVTDKPLILINNYIGDPKLDTLFNQLTAEHKH	–	–	–	–	–	2.08 h	8.89 h	–	–	–	–	3.65 h
MENNEIQSVLMNALSLQEVHVSGDGSHFQVIAVGELFDGMSRVKKQQTVYGPLMEYIADNRIHAVSIKAYTPAEWARDRKLNGF [P0A9W6]	5.36 ± 0.32 h	3.86 ± 0.21 h	4.35 ± 0.56 h	5.87 ± 1.2 h	4.08 ± 0.3 h	3.11 ± 0.42 h	7.8 ± 0.37 h	4.09 ± 0.043 h	7.378 ± 0.011 h	4.79 ± 0.25 h	10.8 ± 1.1 h	4.5 h
MEPLREIRNRLLNGWQLSKMHTFEVAARHQSFALAAEELSLSPSAVSHRINQLEEELGIQLFVRSHRKVELTHEGKRVYWALKSSLDTLNQEILDIKNQELSGTLTLYSRPSIAQCWLVPALGDFTRRYPSISLTVLTGNDNVNLQRAGIDLAIYFDDAPSAQLTHHFLMDEEILPVCSPEYAQRHALTNTVINLCHCTLLHDRQAWSNDSGTDEWHSWAQHYAVNLPTSSGIGFDRSDLAVIAAMNHIGVAMGRKRLVQKRLASGELVAPFGDMTVKCHQHYYITTLPGRQWPKIEAFIIWLREQVKTTS	5.88 h	5.73 ± 0.3 h	6.65 ± 0.47 h	7.48 ± 0.075 h	6.21 ± 1.6 h	2.74 h	11 ± 1.1 h	5.13 h	–	–	–	–
MEQLRAELSHLLGEKLSRIECVNEKADTALWALYDSQGNPMPLMARSFSTPGKARQLAWKTTMLARSGTVRMPTIYGVMTHEEHPGPDVLLLERMRGVSVEAPARTPERWEQLKDQIVEALLAWHRQDSRGCVGAVDNTQENFWPSWYRQHVEVLWTTLNQFNNTGLTMQDKRILFRTRECLPALFEGFNDNCVLIHGNFCLRSMLKDSRSDQLLAMVGPGLMLWAPREYELFRLMDNSLAEDLLWSYLQRAPVAESFIWRRWLYVLWDEVAQLVNTGRFSRRNFDLASKSLLPWLA [P0AB03]	5.11 h	4.02 h	2.54 ± 0.47 h	2.51 h	1.57 h	2.16 ± 0.1 h	6.84 ± 0.48 h	–	–	3.8 h	7.86 h	3.92 ± 0.21 h
MEQRHITGKSHWYHETQSSTTEYDVLPLVPEAAKVSDPFLLDVILEKETLAPFLSWLDPARVLAVDLFPDQLTVTRSQTFTAYERLSTALTVAQVCGVQRLCNYYSARLTPLPGPDSTRESNHRLAQITQYARQLASSPSIIDNRSRQHLNDVGLTAWDCVIISQIIGFIGFQARTIATFQAYLGHPVRWLPGLEIQNYADASLFADESLRWRSSYEVEKLPEEHTKSSTAELCQLAEILSLHPISLSLLEKLLNSTRGNTQPDNQLAALLCARINGSPACFATCMDSSNEYKKISTLMRKGENEINQWADRHSVERATVQAIQWLTRAPDRFSAAQFSPLLEHEKSSTQIINLLVWSGLCGWINRLKIALGETY	6.43 ± 1.4 h	1.97 ± 0.21 h	1.97 ± 0.55 h	1.26 h	1.07 ± 0.024 h	1.25 ± 0.085 h	1.93 ± 0.13 h	1.31 ± 0.044 h	6.39 ± 6 h	1.32 ± 0.4 h	2.65 ± 0.49 h	1.21 ± 0.12 h
MEQSVANLVDMRDVSFTRGNRCIFDNISLTVPRGKITAIMGPSGIGKTTLLRLIGGQIAPDHGEILFDGENIPAMSRSRLYTVRKRMSMLFQSGALFTDMNVFDNVAYPLREHTQLPAPLLHSTVMMKLEAVGLRGAAKLMPSELSGGMARRAALARAIALEPDLIMFDEPFVGQDPITMGVLVKLISELNSALGVTCVVVSHDVPEVLSIADHAWILADKKIVAHGSAQALQANPDPRVRQFLDGIADGPVPFRYPAGDYHADLLPGS	6.3 ± 0.54 h	6.19 ± 0.062 h	–	–	5.79 ± 0.68 h	3.08 ± 0.07 h	12.3 ± 2 h	6.18 ± 0.23 h	> 16 h	7.04 ± 0.68 h	14.1 ± 0.78 h	7.05 ± 1.1 h
MERFDAIIIGAGAAGMFCSALAGQAGRRVLLIDNGKKPGRKILMSGGGRCNFTNLYVEPGAYLSQNPHFCKSALARFTQWDFIDLVNKHGIAWHEKTLGQLFCDDSAQQIVDMLVDECEKGNVTFRLRSEVLSVAKDETGFTLDLNGMTVGCEKLVIATGGLSMPGLGASPFGYKIAEQFGLNVLPTRAGLVPFTLHKPLLEELQVLAGVAVPSVITAENGTVFRENLLFTHRGLSGPAVLQISSYWQPGEFVSINLLPDVDLETFLNEQRNAHPNQSLKNTLAVHLPKRLVERLQQLGQIPDVSLKQLNVRDQQALISTLTDWRVQPNGTEGYRTAEVTLGGVDTNELSSRTMEARKVPGLYFIGEVMDVTGWLGGYNFQWAWSSAWACAQDLIAAKSS	5.02 ± 0.28 h	5.67 ± 1.1 h	–	5.81 ± 0.69 h	4.72 ± 0.1 h	3.282 ± 0.019 h	12.3 ± 1.9 h	5.15 ± 0.21 h	9.59 ± 0.85 h	5.88 ± 0.17 h	10.8 ± 1.7 h	6.42 ± 0.6 h
MERIVVTLGERSYPITIASGLFNEPASFLPLKSGEQVMLVTNETLAPLYLDKVRGVLEQAGVNVDSVILPDGEQYKSLAVLDTVFTALLQKPHGRDTTLVALGGGVVGDLTGFAAASYQRGVRFIQVPTTLLSQVDSSVGGKTAVNHPLGKNMIGAFYQPASVVVDLDCLKTLPPRELASGLAEVIKYGIILDGAFFNWLEENLDALLRLDGPAMAYCIRRCCELKAEVVAADERETGLRALLNLGHTFGHAIEAEMGYGNWLHGEAVAAGMVMAARTSERLGQFSSAETQRIITLLKRAGLPVNGPREMSAQAYLPHMLRDKKVLAGEMRLILPLAIGKSEVRSGVSHELVLNAIADCQSA	4.67 ± 1.3 h	3.73 ± 0.43 h	3.46 ± 0.2 h	3.72 ± 0.1 h	3.57 ± 0.046 h	2.77 ± 0.15 h	8.87 ± 0.33 h	3.49 ± 0.091 h	5.447 ± 0.037 h	5.77 ± 0.57 h	10.6 ± 0.48 h	5.16 ± 0.2 h
MERNVTLDFVRGVAILGILLLNISAFGLPKAAYLNPAWYGAITPRDAWTWAFLDLIGQVKFLTLFALLFGAGLQMLLPRGRRWIQSRLTLLVLLGFIHGLLFWDGDILLAYGLVGLICWRLVRDAPSVKSLFNTGVMLYLVGLGVLLLLGLISDSQTSRAWTPDASAILYEKYWKLHGGVEAISNRADGVGNSLLALGAQYGWQLAGMMLIGAALMRSGWLKGQFSLRHYRRTGFVLVAIGVTINLPAIALQWQLDWAYRWCAFLLQMPRELSAPFQAIGYASLFYGFWPQLSRFKLVLAIACVGRMALTNYLLQTLICTTLFYHLGLFMHFDRLELLAFVIPVWLANILFSVIWLRYFRQGPVEWLWRQLTLRAAGPAISKTSR	–	5.73 ± 0.069 h	5.75 ± 1.1 h	6.13 ± 0.32 h	5.67 ± 0.66 h	–	10.3 ± 1.2 h	6.72 ± 0.74 h	7.45 ± 4 h	5.19 ± 0.44 h	11.6 ± 0.22 h	6.471 ± 0.017 h
MESIEQQLTELRTTLRHHEYLYHVMDAPEIPDAEYDRLMRELRELETKHPELITPDSPTQRVGAAPLAAFSQIRHEVPMLSLDNVFDEESFLAFNKRVQDRLKNNEKVTWCCELKLDGLAVSILYENGVLVSAATRGDGTTGEDITSNVRTIRAIPLKLHGENIPARLEVRGEVFLPQAGFEKINEDARRTGGKVFANPRNAAAGSLRQLDPRITAKRPLTFFCYGVGVLEGGELPDTHLGRLLQFKKWGLPVSDRVTLCESAEEVLAFYHKVEEDRPTLGFDIDGVVIKVNSLAQQEQLGFVARAPRWAVAFKFPAQEQMTFVRDVEFQVGRTGAITPVARLEPVHVAGVLVSNATLHNADEIERLGLRIGDKVVIRRAGDVIPQVVNVVLSERPEDTREVVFPTHCPVCGSDVERVEGEAVARCTGGLICGAQRKESLKHFVSRRAMDVDGMGDKIIDQLVEKEYVHTPADLFKLTAGKLTGLERMGPKSAQNVVNALEKAKETTFARFLYALGIREVGEATAAGLAAYFGTLEALEAASIEELQKVPDVGIVVASHVHNFFAEESNRNVISELLAEGVHWPAPIVINAEEIDSPFAGKTVVLTGSLSQMSRDDAKARLVELGAKVAGSVSKKTDLVIAGEAAGSKLAKAQELGIEVIDEAEMLRLLGS	6.33 ± 0.46 h	5.67 ± 0.88 h	5 ± 0.61 h	5.11 ± 0.22 h	4.28 ± 0.047 h	2.8 ± 0.23 h	9.65 ± 0.5 h	4.64 ± 0.15 h	8.04 ± 0.3 h	4.92 ± 0.57 h	8.66 ± 0.66 h	5.68 ± 1.1 h
